Measurements taken from patent US20050070690A1.

Assays:
nerve growth factor = assay: SPR (BiaCore), TrkIg2 amine-coupled to CM5 chip, NGF passed over at 0.1-100 nM, 1:1 Langmuir model
[1] = target: brain derived neurotrophic factor; assay: SPR (BiaCore), TrkIg2 amine-coupled to CM5 chip, BDNF passed over at 0.1-25 nM, 1:1 Langmuir model
neurotrophin-4 = assay: SPR (BiaCore), TrkIg2 amine-coupled to CM5 chip, NT-4 passed over at 1-100 nM, 1:1 Langmuir model

Row | Substance | Kd (nerve growth factor) [pM] | Kd [1] [pM] | Kd (neurotrophin-4) [pM]
1 | TrkAIg2.66His (from UniProt P04629) (receptor) | 79.2 |  | 
2 | TrkAIg26His (from UniProt P04629-2) (receptor) | 92.6 |  | 
3 | TrkBIg26His (from UniProt Q16620) (receptor) |  | 790 | 260
